In this experiment the target is T1, recombinant BB0347 (Borrelia burgdorferi).
T1 construct: also called rBB0347; source: E. coli Rosetta(DE3)pLysS, pET200, purified (MagneHis nickel particles, dialysed into PBS)
Briefly: ELISA; FnHBD assay: coated plate treated with varying concentrations of rBB0347, 37°C, 1.5 h; detected with rabbit polyclonal anti-BB0347; KD = concentration of added protein at half-maximal binding, assuming saturation. Particulars: both partners purified. In general terms: An ELISA detects its analyte on a solid surface through an enzyme-linked reagent.

B1: peptide fragment containing the CS1 heparin-binding domain (HBD) of human Fn (domain or fragment)
chain: AIPAPTDLKFTQVTPTSLSAQWTPPNVQLTGYRVRVTPKEKTGPMKEINLAPDSSSVVVSGLMVATKYEVSVYALKDTLTSRPAQGVVTTLENVSPPRRARVTDATETTITISWRTKTETITGFQVDAVPANGQTPIQRTIKPDVRSYTITGLQPGTDYKIYLYTLNDNARSSPVVIDASTAIDAPSNLRFLATTPNSLLVSWQPPRARITGYIIKYEKPGSPPREVVPRPRPGVTEATITGLEPGTEYTIYVIALKNNQKSEPLIGRKKT
As for B1, the Kd (commonly a measure of binding affinity in units of concentration) stood at 180 ± 14 nM.

Values taken from paper PMC3785480, “BB0347, from the Lyme Disease Spirochete Borrelia burgdorferi, Is Surface Exposed and Interacts with the CS1 Heparin-Binding Domain of Human Fibronectin” (PLoS ONE, 2013).
